In patent US20260102527A1 (VRIJE UNIVERSITEIT BRUSSEL, published 2026):
Blank lines part the entries; values can stand above or below the binder they belong to.

How the values were obtained:
[1] = molecular target: T1, recombinant hCD8αβ protein (R&D systems) (human, UniProt P01732 22-182; P10966 22-170); experiment: equilibrium binding ELISA, coated hCD8αβ protein
T1 construct: Bought protein; they are tied to this reagent by name only; also called human CD8 protein; human CD8β protein
Experimental: (§1) Wells of a 96 well MicroWell MaxiSorp flat bottom plate (Thermo Fisher Scientific) were coated with 0.2 μg of recombinant hCD8αβ protein, 0.2 μg of cynomolgus CD8β-Fc protein (Sino Biologicals) or PBS overnight at 4° C. The next day, wells were washed 3 times with PBS-T (PBS+0.05% Tween20 (Merck-Millipore, Burlington, MA, USA). Next, wells were blocked with blocking buffer (2% Skimmed milk (Regilait) in PBS) for 1 h at room temperature (RT). Different concentrations of single domain antibodies, diluted in blocking buffer, were added to the wells and incubated for 1 h at RT. Single domain antibody binding was detected using a mouse-anti-HA antibody (1:2000, clone 16B12, Biolegend) and alkaline-phosphatase conjugated goat-anti-mouse antibody (1:200, clone A90-116AP, Bethyl Laboratories, Montgomery, TX, USA). Wells were washed 5 times with PBS-T between all incubation steps. Binding was determined using p-nitrophenyl phosphate (2 mg/ml resuspended in AP blot buffer (12.12 g/L Trizma base, 10.17 g MgCl2·6H20/L, 5.84 g/L NaCl); Thermo Fisher Scientific). Absorbance at 405 nm was measured via a VersaMax ELISA Microplate Reader, using the SoftMax® Pro software (Molecular Devices, San Jose, CA, USA).

[2] = molecular target: T2, human CD8α on CD3- CD56+ NK cells (express hCD8α but not hCD8β) (human, UniProt P01732 22-235); experiment: flow cytometry on primary NK cells, anti-HA detection
T2 construct: whole, on cells; also called cell-exposed CD8a
T2 sequence (P01732 22-235): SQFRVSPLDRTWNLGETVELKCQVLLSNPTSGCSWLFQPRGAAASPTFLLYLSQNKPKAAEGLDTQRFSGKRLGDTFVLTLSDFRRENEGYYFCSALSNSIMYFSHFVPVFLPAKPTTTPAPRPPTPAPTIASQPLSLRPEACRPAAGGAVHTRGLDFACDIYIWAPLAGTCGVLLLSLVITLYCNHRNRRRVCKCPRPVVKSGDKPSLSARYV

[3] = molecular target: T3, human CD8 (CD8αβ) on cells: SUP-T1 T cell lymphoma cells and primary human CD8+ T cells (human, UniProt P01732 22-235; P10966 22-210); experiment: flow cytometry on SUP-T1 cells, anti-HA detection
T3 construct: whole, on cells; SUP-T1 endogenously expresses human CD8; primary T cells came from healthy donors; The sdAbs are directed to the CD8β chain; also called SUP-T1 cells; primary CD8+ T cells
T3 sequence (P01732 22-235, chain 1 of 2): as the sequence (P01732 22-235) above
T3 sequence (P10966 22-210, chain 2 of 2): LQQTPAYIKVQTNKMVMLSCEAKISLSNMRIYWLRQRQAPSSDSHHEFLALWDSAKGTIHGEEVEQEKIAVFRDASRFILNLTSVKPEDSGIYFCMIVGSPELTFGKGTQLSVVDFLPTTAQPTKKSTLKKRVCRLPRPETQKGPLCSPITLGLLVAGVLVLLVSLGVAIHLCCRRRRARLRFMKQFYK
Experimental: Serial dilutions of anti-hCD8β single domain antibodies were incubated with 500.000 SUP-T1 cells in FACS buffer (HBSS (Gibco, Thermo Fisher Scientific) supplemented with 1% FBS and 2 mM EDTA (Duchefa Biochemie, Haarlem, The Netherlands)) for 1 h at 4° C. Cells were washed once with FACS buffer. Next, single domain antibody binding was detected by incubation of the cells with an Alexa Fluor®-488 tagged anti-HA antibody (1:1000 in FACS buffer, clone 16B12, Biolegend, San Diego, CA, USA) for 30 min at 4° C. Again, cells were washed once with FACS buffer. Single domain antibody binding was determined using the FACS CANTO II analyser (BD Biosciences, Franklin Lakes, NJ, USA). The mean fluorescence intensity of single domain antibody binding was determined using FlowJo version 10.

[4] = molecular target: T4, cynomolgus CD8β-Fc protein (Sino Biologicals) (cynomolgus); experiment: equilibrium binding ELISA, coated cynomolgus CD8β-Fc
T4 construct: Bought protein; also called cynomolgus CD8β protein
Experimental: as §1

[5] = molecular target: T1, recombinant hCD8αβ protein (R&D systems); experiment: SPR, Biacore T200, sdAb injected 250 to 1 nM, 25 °C, 1:1 fit
Experimental: The affinity of purified anti-hCD8β single domain antibodies to recombinant hCD8αβ protein (R&D systems, Minneapolis, MN, USA) was determined using the BIACORE-T200 device (Cytiva, Freiburg, Germany). Surface plasmon resonance measurements were performed at 25° C. with HEPES buffered saline (HBS, 20 mM of HEPES pH 7.4, 150 mM of NaCl, 3.4 mM of EDTA 0.05% Tween-20) running buffer. The single domain antibodies were injected consecutively in 2-fold serial dilutions, from 250 to 1 nM. The association step was 100 s, the dissociation step was 200 s, and the two-step regeneration of 35 s at 30 μL·min-1, using 100 mM glycine at pH 3.0, was performed. Local curve fitting analysis was performed using the BIACORE evaluation software (Cytiva) by fitting the obtained sensorgrams to theoretical curves, assuming 1-1 binding geometries. For the determination of the equilibrium dissociation constant, the ratio of the association and dissociation rate constants was determined.

T1 sequence (P01732 22-182 limits assumed, chain 1 of 2): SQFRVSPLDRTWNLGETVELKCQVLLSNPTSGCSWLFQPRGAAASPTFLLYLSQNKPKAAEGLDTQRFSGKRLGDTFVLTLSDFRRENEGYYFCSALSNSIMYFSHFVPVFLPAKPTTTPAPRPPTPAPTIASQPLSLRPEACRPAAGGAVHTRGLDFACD
T1 sequence (P10966 22-170 limits assumed, chain 2 of 2): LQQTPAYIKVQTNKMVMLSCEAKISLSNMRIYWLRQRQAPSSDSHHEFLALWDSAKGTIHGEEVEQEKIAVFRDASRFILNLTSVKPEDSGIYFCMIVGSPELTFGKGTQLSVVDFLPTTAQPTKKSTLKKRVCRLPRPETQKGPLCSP

- Kd [1]: 2.9 nM
- binding result [2]: no binding (tested: 100 nM)
- Kd [3]: 2 nM
- Kd [4]: 1.7 nM
- Kd [5]: 2.6 nM
B1: anti-human CD8β single domain antibody 22728 (VHH)
VHH: DVQLVESGGGLVQAGDSLRLSCVASGRTVSGGVMGWFRQAPGKGREFVASIKWESGRTYYVDSLKDGFTISRDSPKNTVYLQMTNLKPEDTAVYYCAAGIRVWQLSTLESTYDDWGQGTQVTVSS
notes: Llama-derived sdAb; detected through its C-terminal HA-tag in flow cytometry and ELISA; not shown: C-terminal HA-tag and His-tag (pMECS vector)

- Kd [1]: 3.5 nM
- Kd [3]: 16.8 nM
- Kd [4]: 1.6 nM
- Kd [5]: 5 nM
B2: anti-human CD8β single domain antibody 22772 (VHH)
VHH: DVQLVESGGGLVQPGGSLRLSCRASGHTFSDLSVGWFRRAPGKAREFVATTAWNGSIRYAESVKGRFTISRDNAANMMYLQMNSLKPEDTAIYYCAAAVGISYDYWGQGTQVTVSS
notes: detected through its C-terminal HA-tag; not shown: C-terminal HA-tag and His-tag (pMECS vector)

- Kd [1]: 3.6 nM
- binding result [2]: no binding (tested: 100 nM)
- Kd [3]: 16 nM
- Kd [4]: 4.4 nM
- Kd [5]: 1 nM
B3: anti-human CD8β single domain antibody 22719 (VHH)
VHH: DVQLVESGGGLVQAGGSLRLSCRASGHTFSDTAVGWFRRVPGKEREFVATIAGSGSIRYSESVKGRFTISGDNAKNMVYLQMNRLKPEDTGVYYCAAAVGISYDYWGQGTQVTVSS
notes: as for B1
